For 6 molecules, Kd results are on record in publication PMC10801496, “A Novel Anti-CD47 Nanobody Tetramer for Cancer Therapy” (Antibodies, 2024).

The target of the assay is T1, human CD47 with His tag (Homo sapiens, UniProt Q08722).
T1 construct: CD47, human; The alpaca was immunised with an extracellular fragment of CD47; also called recombinant CD47; source: gift from P.M. Chumakov
Kind of assay: SPR; recombinant CD47 anchored to a CM5 chip, nanobodies as analyte, Biacore T200. The settings on record: both partners purified.

T1 sequence (Q08722 19-323): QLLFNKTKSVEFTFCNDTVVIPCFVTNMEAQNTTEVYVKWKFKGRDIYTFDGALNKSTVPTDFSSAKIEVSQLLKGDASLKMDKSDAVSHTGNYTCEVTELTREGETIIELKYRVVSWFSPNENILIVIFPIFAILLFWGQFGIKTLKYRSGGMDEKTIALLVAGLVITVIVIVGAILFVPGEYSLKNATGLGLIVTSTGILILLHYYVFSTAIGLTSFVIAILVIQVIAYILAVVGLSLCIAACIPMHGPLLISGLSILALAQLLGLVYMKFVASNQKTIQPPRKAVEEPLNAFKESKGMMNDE

B1: 47VHH1C17 (VHH)
VHH: QVQLVESGGGLVQAGGSLRLSCAASGHTFSSYDMGWFRQAPGKEREFVAHINWSGSTYYADSVKGRFTISGGNAKNAVYLQMNSLKPEDTAVYYCGAKYAISRTWDYWGQGTQVTVSS
notes: alpaca VHH; Cloned into pET32b+; about 17 kDa on SDS-PAGE; source: E. coli BL21DE3, purified (Ni-NTA, gel-filtration)
In the case of B1, the Kd was 2000 nM.

B2: 47VHH1A12 (VHH)
VHH: QLQLVESGGGLVQAGGSLRLSCVVSGGTFSALTMGWFRDVPGKEREFVSAISFDTRTTYYSDSVKGRFAISRDNGLNTVYLDMNSLRPEDTAVYVCAADAQIGWVNRRAYDYDYWGQGTQVTVSS
notes: as for B1
As to B2, the Kd was approximately 30000 nM.

B3: 47VHH2B10 (VHH)
VHH: QVQLVESGGGLVQPGGSLRLSCEASGFNLGYYGICWFRRAAGKEREGVACSATPDDSTYYADSVKGRFTISKDKAKNMIFLQMNDLKPEDTAVYYCVTDRKPKYGKQWLEFSEYDYWGQGTQVIVSS
notes: as for B1
For B3, the Kd was approximately 30000 nM.

B4: 47VHH1D9 (VHH)
VHH: RVQAGGSLRLSCKVSGNNFRRVNMGWYRQAPGKQRDLVAWISNDGGTYYDRSLKGRFTISRDNTKNTMFLQMDSLKPEDTAVYYCNSRPSSIFGSWGQGTQVTVSS
notes: as for B1
On to B4, for which the Kd amounted to 400 nM.

B5: 47VHH1H4 (VHH)
VHH: QVQLVESGGGLVQAGGSLRLSCKVSGNNFRRVNMGWYRQAPGKQRDLVAWISNDGGTYYDRSLKGRFTISRDNTKNTMFLQMDSLKPEDTAVYYCNSRPSSIFGSWGQGTQVTVSS
notes: alpaca VHH; Cloned into pET32b+; about 17 kDa on SDS-PAGE; also called native 47VHH1H4; source: E. coli BL21DE3, purified (Ni-NTA, gel-filtration)
Consider B5, for which the Kd is 30 nM.

B6: 47VHH1H4B (VHH)
VHH: B5 VHH
notes: as the VHH of m3 (47VHH1H4); IgA hinge linker; biotin acceptor domain BAD; About 25 kDa on SDS-PAGE; also called biotinylated 47VHH1H4; biotinylated 47VHH1H4 fragment; source: E. coli BL21DE3 carrying BirA, 0.3 mM biotin, purified (Ni-NTA, UNO S1 cation exchange)
Take B6: the equilibrium dissociation constant (Kd) was found to be 3 nM.

By Kd is commonly meant the free concentration of one partner at which half of the binding sites on the other are occupied at equilibrium, for simple one-to-one binding.
